Assays:
reduced CFHR1 = molecular target: T1, reduced CFHR1 (UniProt Q03591 19-330, limits assumed); assay: ELISA, reduced antigen
T1 sequence (looked up): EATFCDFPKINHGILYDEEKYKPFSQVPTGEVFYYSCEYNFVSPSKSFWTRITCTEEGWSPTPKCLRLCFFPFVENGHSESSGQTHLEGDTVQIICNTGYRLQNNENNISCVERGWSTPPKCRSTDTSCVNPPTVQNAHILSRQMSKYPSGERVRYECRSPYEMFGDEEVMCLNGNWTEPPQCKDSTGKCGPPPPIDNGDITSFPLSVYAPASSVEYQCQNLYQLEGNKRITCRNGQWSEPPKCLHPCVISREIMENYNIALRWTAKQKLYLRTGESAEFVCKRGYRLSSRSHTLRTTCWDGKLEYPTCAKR

reduced CFHR2 = molecular target: T2, reduced CFHR2 (UniProt P36980 19-270, limits assumed); assay: ELISA, reduced antigen
T2 sequence (looked up): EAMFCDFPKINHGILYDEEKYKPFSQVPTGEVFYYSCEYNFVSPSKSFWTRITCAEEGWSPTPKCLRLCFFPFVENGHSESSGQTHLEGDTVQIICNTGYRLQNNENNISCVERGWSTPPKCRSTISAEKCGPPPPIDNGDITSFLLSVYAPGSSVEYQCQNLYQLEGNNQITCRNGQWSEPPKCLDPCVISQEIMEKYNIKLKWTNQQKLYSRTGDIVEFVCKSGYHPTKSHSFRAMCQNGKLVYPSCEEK

non-reduced CFH = molecular target: T3, non-reduced CFH; assay: ELISA, non-reduced antigen
T3 construct: also called CFH (NON-REDUCED)
T3 chain: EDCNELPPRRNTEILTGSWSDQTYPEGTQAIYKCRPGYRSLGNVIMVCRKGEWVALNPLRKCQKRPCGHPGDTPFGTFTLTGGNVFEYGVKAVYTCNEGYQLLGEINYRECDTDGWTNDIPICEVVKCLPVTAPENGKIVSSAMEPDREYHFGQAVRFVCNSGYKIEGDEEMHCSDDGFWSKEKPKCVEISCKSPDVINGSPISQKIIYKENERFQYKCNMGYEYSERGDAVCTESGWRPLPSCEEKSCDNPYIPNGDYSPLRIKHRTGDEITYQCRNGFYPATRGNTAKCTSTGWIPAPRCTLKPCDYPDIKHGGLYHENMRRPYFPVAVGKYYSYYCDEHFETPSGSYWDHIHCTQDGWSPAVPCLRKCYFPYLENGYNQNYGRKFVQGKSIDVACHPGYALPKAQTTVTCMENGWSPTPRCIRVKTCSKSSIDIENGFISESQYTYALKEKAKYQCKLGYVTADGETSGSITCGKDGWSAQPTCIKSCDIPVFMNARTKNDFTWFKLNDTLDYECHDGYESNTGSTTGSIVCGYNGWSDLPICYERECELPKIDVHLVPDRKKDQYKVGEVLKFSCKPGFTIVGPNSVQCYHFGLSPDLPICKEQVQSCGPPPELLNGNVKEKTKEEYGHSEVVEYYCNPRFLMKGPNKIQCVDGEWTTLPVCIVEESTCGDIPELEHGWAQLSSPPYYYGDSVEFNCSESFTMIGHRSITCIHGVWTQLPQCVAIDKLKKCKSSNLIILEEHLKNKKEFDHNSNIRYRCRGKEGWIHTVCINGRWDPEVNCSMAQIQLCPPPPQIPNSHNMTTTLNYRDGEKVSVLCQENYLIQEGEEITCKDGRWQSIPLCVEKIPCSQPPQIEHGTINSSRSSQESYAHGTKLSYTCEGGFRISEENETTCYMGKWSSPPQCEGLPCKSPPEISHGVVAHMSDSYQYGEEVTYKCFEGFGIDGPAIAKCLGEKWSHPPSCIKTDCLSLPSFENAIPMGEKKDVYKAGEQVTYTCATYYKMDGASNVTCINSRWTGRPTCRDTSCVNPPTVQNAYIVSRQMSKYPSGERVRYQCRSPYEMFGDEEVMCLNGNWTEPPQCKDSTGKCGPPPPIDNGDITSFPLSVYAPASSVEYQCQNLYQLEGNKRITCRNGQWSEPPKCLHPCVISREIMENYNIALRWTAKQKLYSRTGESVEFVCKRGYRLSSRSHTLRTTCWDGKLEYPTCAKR

non-reduced CFHR1 = molecular target: T4, non-reduced CFHR1; assay: ELISA, non-reduced antigen
T4 construct: also called CFHR1 (NON-REDUCED)
T4 chain: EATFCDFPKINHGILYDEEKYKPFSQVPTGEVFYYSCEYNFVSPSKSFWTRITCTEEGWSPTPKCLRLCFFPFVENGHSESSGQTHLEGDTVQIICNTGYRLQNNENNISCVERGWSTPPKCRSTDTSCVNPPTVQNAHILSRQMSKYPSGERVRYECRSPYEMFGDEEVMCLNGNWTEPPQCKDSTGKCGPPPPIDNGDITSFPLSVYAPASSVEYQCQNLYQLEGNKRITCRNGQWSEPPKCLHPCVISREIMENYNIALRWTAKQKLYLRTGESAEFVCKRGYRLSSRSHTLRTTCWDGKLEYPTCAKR

non-reduced CFHR2 = molecular target: T5, non-reduced CFHR2; assay: ELISA, non-reduced antigen
T5 construct: also called CFHR2 (NON-REDUCED)
T5 chain: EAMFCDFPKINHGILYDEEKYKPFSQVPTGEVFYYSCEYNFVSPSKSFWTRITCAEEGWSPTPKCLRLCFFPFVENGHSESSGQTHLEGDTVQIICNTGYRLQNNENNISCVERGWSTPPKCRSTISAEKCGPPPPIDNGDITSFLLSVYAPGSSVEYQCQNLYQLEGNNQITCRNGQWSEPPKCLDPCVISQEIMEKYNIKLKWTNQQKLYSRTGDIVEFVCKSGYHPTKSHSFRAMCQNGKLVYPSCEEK

non-reduced CFHR3 = molecular target: T6, non-reduced CFHR3; assay: ELISA, non-reduced antigen
T6 construct: also called CFHR3 (NON-REDUCED)
T6 chain: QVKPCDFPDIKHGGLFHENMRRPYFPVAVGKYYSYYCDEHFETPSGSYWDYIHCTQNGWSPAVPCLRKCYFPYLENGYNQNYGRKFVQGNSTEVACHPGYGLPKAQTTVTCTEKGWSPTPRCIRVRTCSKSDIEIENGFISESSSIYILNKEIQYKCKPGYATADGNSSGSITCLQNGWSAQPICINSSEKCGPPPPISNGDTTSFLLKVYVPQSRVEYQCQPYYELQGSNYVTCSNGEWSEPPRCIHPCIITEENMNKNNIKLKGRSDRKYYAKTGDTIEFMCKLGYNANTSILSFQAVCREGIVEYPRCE

non-reduced CFHR4 = molecular target: T7, non-reduced CFHR4; assay: ELISA, non-reduced antigen
T7 construct: not reduced; also called CFHR4 (NON-REDUCED)

non-reduced CFHR5 = molecular target: T8, non-reduced CFHR5; assay: ELISA, non-reduced antigen
T8 construct: also called CFHR5 (NON-REDUCED)
T8 chain: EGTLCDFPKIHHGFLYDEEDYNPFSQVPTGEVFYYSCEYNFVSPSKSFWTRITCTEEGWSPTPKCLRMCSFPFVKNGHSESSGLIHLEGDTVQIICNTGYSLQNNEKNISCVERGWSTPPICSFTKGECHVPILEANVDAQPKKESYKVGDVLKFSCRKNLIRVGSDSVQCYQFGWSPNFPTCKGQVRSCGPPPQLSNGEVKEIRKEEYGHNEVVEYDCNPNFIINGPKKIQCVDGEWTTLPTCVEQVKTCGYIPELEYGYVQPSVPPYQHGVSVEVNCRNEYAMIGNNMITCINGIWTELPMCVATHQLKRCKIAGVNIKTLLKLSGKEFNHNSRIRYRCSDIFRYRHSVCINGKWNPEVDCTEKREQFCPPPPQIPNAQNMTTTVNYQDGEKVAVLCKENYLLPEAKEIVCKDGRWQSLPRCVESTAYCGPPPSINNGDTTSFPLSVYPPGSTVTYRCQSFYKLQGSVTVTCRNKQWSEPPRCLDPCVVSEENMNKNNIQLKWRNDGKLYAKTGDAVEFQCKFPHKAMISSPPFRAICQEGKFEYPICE

| Binder | fold change vs isotype at 1 ug/ml (reduced CFHR1) | fold change vs isotype at 1 ug/ml (reduced CFHR2) | fold change vs isotype at 1 ug/ml (non-reduced CFH) | fold change vs isotype at 1 ug/ml (non-reduced CFHR1) | fold change vs isotype at 1 ug/ml (non-reduced CFHR2) | binding result (non-reduced CFHR3) | fold change vs isotype at 1 ug/ml (non-reduced CFHR3) | fold change vs isotype at 1 ug/ml (non-reduced CFHR4) | binding result (non-reduced CFHR5) | fold change vs isotype at 1 ug/ml (non-reduced CFHR5) |
| --- | --- | --- | --- | --- | --- | --- | --- | --- | --- | --- |
| ATL4717 (antibody, human IgG1, kappa, V domains shown, Human IgG1; also called ATL0004717; ATL04717) VH: QVQLVESGGGMVQPGRSLRLSCAASGFTFSIYGMHWVRQAPGRGLEWVAVMSFDGKTKYYADSVKGRFTISRDNSKNTLYLQMNSLRRVDTAVYYCAKGGATAAVFDSWGQGTLVTVSS VL: not shown | 23.8 fold | 10.7 fold | 7.3 fold | 10.7 fold | 4.3 fold | no binding (tested: 1 ug/ml) | 0.9 fold | 0.9 fold | no binding (tested: 1 ug/ml) | 0.9 fold |
| ATL5170 (antibody, human IgG1, kappa, V domains shown, IgG1; also called ATL_0005170) VH: QVQLVESGGGVVQPGRSLRLSCAASGFTFSNYGMHWVRQAPGKGLEWVAVTSFDGKTKYYADSVKGRFTISRDNSKNTLYLQMNSLRAEDTAVYYCAKGGATAAVLDSWGQGTLVTVSS VL: not shown | 23.1 fold | 8.4 fold | 10 fold | 8.4 fold | 1.3 fold | no binding (tested: 1 ug/ml) | 1 fold | 0.9 fold | no binding (tested: 1 ug/ml) | 1 fold |

Reference: US20250304666A1 (ALCHEMAB THERAPEUTICS, published 2025)
